One molecule from PMC8158011 (Proceedings of the National Academy of Sciences of the …, 2021) can be followed below.

This assay concerns the target T1, FGFR4-Ecto-Fc (ectodomain of human FGFR4 fused to the Fc region of human IgG1) (human, UniProt P22455 22-369).
T1 sequence (looked up): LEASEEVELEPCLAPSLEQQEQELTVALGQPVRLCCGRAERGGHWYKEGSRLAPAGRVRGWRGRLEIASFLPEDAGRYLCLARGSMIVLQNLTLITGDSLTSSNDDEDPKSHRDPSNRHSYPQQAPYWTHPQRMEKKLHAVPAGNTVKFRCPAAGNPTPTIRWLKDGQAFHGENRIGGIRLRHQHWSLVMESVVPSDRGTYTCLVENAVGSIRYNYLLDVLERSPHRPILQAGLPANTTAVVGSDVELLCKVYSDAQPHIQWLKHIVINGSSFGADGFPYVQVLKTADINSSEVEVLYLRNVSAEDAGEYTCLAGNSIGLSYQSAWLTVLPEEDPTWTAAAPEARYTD
Nature of the assay: pull-down.

B1: purified recombinant human FAM3B-His protein (ligand, UniProt P58499 30-235, looked up)
chain: ELIPDAPLSSAAYSIRSIGERPVLKAPVPKRQKCDHWTPCPSDTYAYRLLSGGGRSKYAKICFEDNLLMGEQLGNVARGINIAIVNYVTGNVTATRCFDMYEGDNSGPMTKFIQSAAPKSLLFMVTYDDGSTRLNNDAKNAIEALGSKEIRNMKFRSSWVFIAAKGLELPSEIQREKINHSDAKNNRYSGWPAEIQIEGCIPKERS
Consider B1, for which the binding result was “binds”.
